The source of these data is the supplement of paper PMC9112550, “Optimization of the antimicrobial peptide Bac7 by deep mutational scanning” (BMC Biology, 2022).

The subject of the data set is Escherichia coli TOP10. Briefly: shrunken log2 fold change of peptide-encoding DNA abundance (4.5 h post-induction vs induction); higher = less antimicrobial activity (less host growth inhibition). Conditions: time post-induction: 4.5 h; library: site-saturation at positions 5, 18, 19, 20.
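Also: peptides expressed intracellularly from a pBAD plasmid library in pooled LB shake-flask culture, induced with 0.3% L-arabinose, DNA abundance read by NGS, three biological replicates, DESeq2 with apeglm shrinkage.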

Regarding RRIRFRPPRLPRPRPRPWYAPRP, the “shrunken log2 fold change” value was -0.791.

Turning to RRIRWRPPRLPRPRPRPWNTPRP, the “shrunken log2 fold change” value is -0.195.

As for RRIRLRPPRLPRPRPRPDCQPRP, the “shrunken log2 fold change” value is 0.153.

Regarding RRIRSRPPRLPRPRPRPLDSPRP, the “shrunken log2 fold change” value is -0.0139.

Consider RRIRSRPPRLPRPRPRPWSPPRP, for which the “shrunken log2 fold change” value is -0.1.

As to RRIRGRPPRLPRPRPRPDSYPRP, the “shrunken log2 fold change” value amounted to 0.0941.

As to RRIRPRPPRLPRPRPRPSDPPRP, the “shrunken log2 fold change” value was -0.184.

In the case of RRIRNRPPRLPRPRPRPRMFPRP, the “shrunken log2 fold change” value is -0.362.

Turning to RRIRLRPPRLPRPRPRPYHVPRP, the “shrunken log2 fold change” value is -1.29.

In the case of RRIRCRPPRLPRPRPRPIYCPRP, the “shrunken log2 fold change” value is -0.14.

In the case of RRIRDRPPRLPRPRPRPQNMPRP, the “shrunken log2 fold change” value is -0.574.

As to RRIRARPPRLPRPRPRPSYWPRP, the “shrunken log2 fold change” value is -0.184.

For RRIRPRPPRLPRPRPRPLMQPRP, the “shrunken log2 fold change” value amounted to 0.124.

Turning to RRIRGRPPRLPRPRPRPFVDPRP, the “shrunken log2 fold change” value was found to be 0.571.

In the case of RRIRARPPRLPRPRPRPECKPRP, the “shrunken log2 fold change” value came out at 0.769.

Consider RRIRIRPPRLPRPRPRPKWHPRP, for which the “shrunken log2 fold change” value was -0.27.

As to RRIRIRPPRLPRPRPRPDNLPRP, the “shrunken log2 fold change” value was -0.00843.

With RRIRMRPPRLPRPRPRPTLVPRP, the “shrunken log2 fold change” value came to 0.171.

Take RRIRHRPPRLPRPRPRPVHNPRP: the “shrunken log2 fold change” value was found to be 0.154.

In the case of RRIRNRPPRLPRPRPRPISQPRP, the “shrunken log2 fold change” value is -0.261.

Take RRIRNRPPRLPRPRPRPNIQPRP: the “shrunken log2 fold change” value was -0.748.

As for RRIRPRPPRLPRPRPRPPSQPRP, the “shrunken log2 fold change” value worked out at 0.334.

RRIRERPPRLPRPRPRPTRDPRP: the “shrunken log2 fold change” value was found to be 0.245.

For RRIRLRPPRLPRPRPRPMVTPRP, the “shrunken log2 fold change” value amounted to 0.0098.

Take RRIRIRPPRLPRPRPRPMVVPRP: the “shrunken log2 fold change” value is -0.0948.

RRIRFRPPRLPRPRPRPNHIPRP: the “shrunken log2 fold change” value was -0.937.

Turning to RRIRYRPPRLPRPRPRPIPDPRP, the “shrunken log2 fold change” value stood at 0.0657.

Turning to RRIRERPPRLPRPRPRPIVEPRP, the “shrunken log2 fold change” value is 0.0517.

As to RRIRKRPPRLPRPRPRPRNAPRP, the “shrunken log2 fold change” value stood at 0.57.

RRIRNRPPRLPRPRPRPGGVPRP: the “shrunken log2 fold change” value turned out to be 0.239.

Consider RRIRRRPPRLPRPRPRPRWCPRP, for which the “shrunken log2 fold change” value is 0.0597.

Turning to RRIRERPPRLPRPRPRPKHMPRP, the “shrunken log2 fold change” value is -0.21.

For RRIRIRPPRLPRPRPRPNDVPRP, the “shrunken log2 fold change” value was -0.0102.

On to RRIRKRPPRLPRPRPRPRYWPRP, for which the “shrunken log2 fold change” value came out at 0.173.

On to RRIRLRPPRLPRPRPRPFANPRP, for which the “shrunken log2 fold change” value was 0.0335.

Regarding RRIRRRPPRLPRPRPRPPHQPRP, the “shrunken log2 fold change” value is 1.32.

For RRIRLRPPRLPRPRPRPFRAPRP, the “shrunken log2 fold change” value came to 0.113.

RRIRTRPPRLPRPRPRPNCYPRP: the “shrunken log2 fold change” value is -0.836.

On to RRIRDRPPRLPRPRPRPDINPRP, for which the “shrunken log2 fold change” value is 0.47.

With RRIRHRPPRLPRPRPRPLEGPRP, the “shrunken log2 fold change” value worked out at 0.0244.

In the case of RRIRLRPPRLPRPRPRPYIFPRP, the “shrunken log2 fold change” value is -0.549.

As for RRIRVRPPRLPRPRPRPSDQPRP, the “shrunken log2 fold change” value was -0.669.

As to RRIRNRPPRLPRPRPRPWATPRP, the “shrunken log2 fold change” value is -0.188.

On to RRIRQRPPRLPRPRPRPVMGPRP, for which the “shrunken log2 fold change” value was found to be 0.0224.

With RRIRNRPPRLPRPRPRPKCRPRP, the “shrunken log2 fold change” value was found to be 0.0642.

As to RRIRVRPPRLPRPRPRPTDSPRP, the “shrunken log2 fold change” value was -0.115.

For RRIRCRPPRLPRPRPRPEAIPRP, the “shrunken log2 fold change” value was found to be 0.117.

In the case of RRIRIRPPRLPRPRPRPRNVPRP, the “shrunken log2 fold change” value is -0.247.

Turning to RRIRKRPPRLPRPRPRPWRMPRP, the “shrunken log2 fold change” value was 0.0773.

RRIRRRPPRLPRPRPRPMWFPRP: the “shrunken log2 fold change” value was -0.0232.

In the case of RRIRGRPPRLPRPRPRPIKTPRP, the “shrunken log2 fold change” value stood at 0.143.

In the case of RRIRKRPPRLPRPRPRPMHCPRP, the “shrunken log2 fold change” value was 3.88.

Consider RRIRWRPPRLPRPRPRPDNGPRP, for which the “shrunken log2 fold change” value was determined as 0.0563.

Regarding RRIRTRPPRLPRPRPRPQHAPRP, the “shrunken log2 fold change” value is -0.0164.

In the case of RRIRFRPPRLPRPRPRPQYYPRP, the “shrunken log2 fold change” value is -0.846.

As for RRIRVRPPRLPRPRPRPGLHPRP, the “shrunken log2 fold change” value was -0.0936.

Consider RRIRRRPPRLPRPRPRPEYYPRP, for which the “shrunken log2 fold change” value is -0.324.

As for RRIRERPPRLPRPRPRPRGSPRP, the “shrunken log2 fold change” value stood at 0.147.

On to RRIRARPPRLPRPRPRPRFHPRP, for which the “shrunken log2 fold change” value was -0.0673.

As to RRIRMRPPRLPRPRPRPPQPPRP, the “shrunken log2 fold change” value came to 1.37.

On to RRIRKRPPRLPRPRPRPIYYPRP, for which the “shrunken log2 fold change” value is -0.37.

Consider RRIRHRPPRLPRPRPRPPPLPRP, for which the “shrunken log2 fold change” value was 0.651.

Turning to RRIRCRPPRLPRPRPRPSTYPRP, the “shrunken log2 fold change” value is -0.768.

For the sequence RRIRDRPPRLPRPRPRPIHTPRP, the “shrunken log2 fold change” value is -0.159.

For RRIRARPPRLPRPRPRPGWWPRP, the “shrunken log2 fold change” value was determined as 0.235.

Take RRIRQRPPRLPRPRPRPSGGPRP: the “shrunken log2 fold change” value stood at 0.0203.

For RRIRQRPPRLPRPRPRPFDFPRP, the “shrunken log2 fold change” value is -0.404.

Consider RRIRHRPPRLPRPRPRPFGYPRP, for which the “shrunken log2 fold change” value was -0.133.

For RRIRVRPPRLPRPRPRPGNNPRP, the “shrunken log2 fold change” value was -0.249.

Regarding RRIRNRPPRLPRPRPRPTVWPRP, the “shrunken log2 fold change” value amounted to 0.563.

Regarding RRIRCRPPRLPRPRPRPTRWPRP, the “shrunken log2 fold change” value came to 0.284.

RRIRCRPPRLPRPRPRPMFTPRP: the “shrunken log2 fold change” value is -0.497.

RRIRGRPPRLPRPRPRPMVGPRP: the “shrunken log2 fold change” value was 0.108.

Consider RRIRGRPPRLPRPRPRPDICPRP, for which the “shrunken log2 fold change” value amounted to 0.2.

As to RRIRWRPPRLPRPRPRPHRLPRP, the “shrunken log2 fold change” value was -0.0123.

As to RRIRHRPPRLPRPRPRPLEEPRP, the “shrunken log2 fold change” value was found to be 0.136.

In the case of RRIRPRPPRLPRPRPRPKMTPRP, the “shrunken log2 fold change” value turned out to be 0.0519.

For the sequence RRIRVRPPRLPRPRPRPKLEPRP, the “shrunken log2 fold change” value stood at 0.09.

RRIRVRPPRLPRPRPRPWSCPRP: the “shrunken log2 fold change” value was -0.155.

On to RRIRWRPPRLPRPRPRPLYNPRP, for which the “shrunken log2 fold change” value is -0.78.

Take RRIRQRPPRLPRPRPRPHKIPRP: the “shrunken log2 fold change” value turned out to be 0.00423.

Turning to RRIRDRPPRLPRPRPRPIFVPRP, the “shrunken log2 fold change” value was determined as 0.0563.

Turning to RRIRWRPPRLPRPRPRPTPTPRP, the “shrunken log2 fold change” value was 0.22.

As to RRIRSRPPRLPRPRPRPNWKPRP, the “shrunken log2 fold change” value stood at 0.00354.

For RRIRMRPPRLPRPRPRPYTVPRP, the “shrunken log2 fold change” value worked out at 0.0221.

As for RRIRERPPRLPRPRPRPPPCPRP, the “shrunken log2 fold change” value turned out to be 0.0452.

For the sequence RRIRWRPPRLPRPRPRPLWGPRP, the “shrunken log2 fold change” value worked out at 0.08.

On to RRIRGRPPRLPRPRPRPENCPRP, for which the “shrunken log2 fold change” value is 0.111.

In the case of RRIRFRPPRLPRPRPRPADHPRP, the “shrunken log2 fold change” value turned out to be 0.00851.

For RRIRMRPPRLPRPRPRPKTNPRP, the “shrunken log2 fold change” value worked out at 0.864.

Regarding RRIRARPPRLPRPRPRPNYKPRP, the “shrunken log2 fold change” value was -0.345.
